Results on 23 molecules are retold here after patent publication US9266964.

Residue numbers refer to the chain shown, from its start.

Sequences and labels used below:
B1: DX-2922 (antibody, V domains shown)
VH: EVQLLESGGGLVQPGGSLRLSCAASGFTFSHYLMTWVRQAPGKGLEWVSYISPSGGHTIYADSVKGRFTISRDNSKNTLYLQMNSLRAEDTAVYYCARVARGIAARSRTSYFDYWGQGTLVTVSS
VL: EIVLTQSPGTLSLSPGERATLSCRTSQFVNSNYLAWYQQKPGQAPRLLIYGASSRATGIPDRFSGSGSGTDFTLTISRLEPEDFAVYYCQQSSRTPWTFGQGTKVEIK
notes: also called X101-A01; 559A-X0101-A01
B2: X115-B07 (antibody, V domains shown)
VH: B1 VH with R98M, A100G, R101Q, A104R, A105G, D113A, Y114Q
VL: B1 VL
notes: also called 559A-X115-B07; 559A-X0115-B07
B3: X115-F02 (Fab, V domains shown)
VH: EVQLLESGGGLVQPGGSLRLSCAASGFTFSHYIMMWVRQAPGKGLEWVSGIYSSGGITVYADSVKGRFTISRDNSKNTLYLQMNSLRAEDTAVYYCAYRRIGVPRRDEFDIWGQGTMVTVSS
VL: DIQMTQSPSTLSASVGDRVTITCRASQSISSWLAWYQQKPGKAPKLLIYKASTLESGVPSRFSGSGSGTEFTLTISSLQPDDFATYYCQQYNTYWTFGQGTKVEIK
notes: also called 559A-X115-F02; 559A-X0115-F02
B4: X115-D01 (antibody, V domains shown)
VH: EVQLLESGGGLVQPGGSLRLSCAASGFTFSIYSMHWVRQAPGKGLEWVSSIYPSRGMTWYADSVKGRFTISRDNSKNTLYLQMNSLRAEDTAVYYCAYRRTGIPRRDAFDIWGQGTMVTVSS
VL: B3 VL
notes: also called 559A-X115-D01; 559A-X0115-D01
B5: X115-G04 (antibody, V domains shown)
VH: B3 VH with I101T
VL: B3 VL
notes: also called 559A-X115-G04; 559A-X0115-G04
B6: X115-A03 (antibody, V domains shown)
VH: B3 VH with Y98W, E108S, I111M
VL: B3 VL
notes: also called 559A-X115-A03; 559A-X0115-A03
B7: M202-H03 (Fab, V domains shown)
VH: B3 VH with Y98F, I101T, R106W, E108D
VL: B3 VL with K45N
notes: Tested as Fab; printed HC runs into CH1; Same CDRs as M202-C01, differs at the residue before HV-CDR3 (F for Y)
B8: X69-C09 (IgG) (antibody, V domains shown)
VH: EVQLLESGGGLVQPGGSLRLSCAASGFTFSAYSMIWVRQAPGKGLEWVSYIRPSGGRTTYADSVKGRFTISRDNSKNTLYLQMNSLRAEDTAVYYCARGGLLLWFRELKSNYFDYWGQGTLVTVSS
VL: DIQMTQSPSSLSAFVGDRVTITCRASQPIDNYLNWYHQKPGKAPKLLIYAASRLQSGVPSRLSGSGFGTDFTLTISSLQPEDFGNYYCQQSYTVPYTFGGGTKVEIR
notes: Full length human IgG1; printed HC runs into CH1; also called Parental
B9: X67-F01 (IgG) (antibody, V domains shown)
VH: B8 VH with F105Q
VL: B8 VL
notes: printed HC runs into CH1
B10: X67-C03 (IgG) (antibody, V domains shown)
VH: B8 VH with F105M
VL: B8 VL
notes: printed HC runs into CH1
B11: X67-H04 (IgG) (antibody, V domains shown)
VH: B8 VH with F105E
VL: B8 VL
notes: printed HC runs into CH1; also called 559A-X67-H04
B12: X67-F10 (IgG) (antibody, V domains shown)
VH: B8 VH with F105T
VL: B8 VL
notes: printed HC runs into CH1
B13: X67-E04 (IgG) (antibody, V domains shown)
VH: B8 VH with F105D
VL: B8 VL
notes: printed HC runs into CH1
B14: X67-B03 (IgG) (antibody, V domains shown)
VH: B8 VH with F105S
VL: B8 VL
notes: printed HC runs into CH1
B15: X67-C09 (IgG) (antibody, V domains shown)
VH: B8 VH with F105G
VL: B8 VL
notes: printed HC runs into CH1
B16: DX-2922 (antibody, V domains shown)
VH: B1 VH
VL: B1 VL
notes: Germlined IgG produced in CHO cells; only the variable domains are printed; also called X101-A01; 559A-X0101-A01
B17: X115-F02 (Fab, V domains shown)
VH: B3 VH
VL: B3 VL
notes: as for B3
B18: X115-D01 (antibody, V domains shown)
VH: B4 VH
VL: B3 VL
notes: only variable domains given; also called 559A-X115-D01; 559A-X0115-D01
B19: X115-A03 (antibody, V domains shown)
VH: B3 VH with Y98W, E108S, I111M
VL: B3 VL
notes: only variable domains given; also called 559A-X115-A03; 559A-X0115-A03
B20: X115-B07 (antibody, V domains shown)
VH: B1 VH with R98M, A100G, R101Q, A104R, A105G, D113A, Y114Q
VL: B1 VL
notes: only variable domains given; also called 559A-X115-B07; 559A-X0115-B07
B21: X115-E09 (antibody, V domains shown)
VH: B1 VH with R101Q, Y111S, F112V, Y114Q
VL: B1 VL
notes: only variable domains given; also called 559A-X115-E09; 559A-X0115-E09
B22: X115-D05 (antibody, V domains shown)
VH: B1 VH with H31D, L33M, T35A, Y50S, S52V, I59H
VL: B1 VL
notes: only variable domains given; also called 559A-X115-D05; 559A-X0115-D05
B23: X115-H06 (antibody, V domains shown)
VH: B1 VH with R101Q, A104S
VL: B1 VL
notes: only variable domains given; also called 559A-X115-H06; 559A-X0115-H06

For one assay, the target named is T1, pKal catalytic domain Mutant 1 (human, UniProt P03952 391-638, limits assumed).
T1 construct: domain: catalytic domain; Expressed in Pichia pastoris, purified by IMAC; not shown: His tag fusion
Put plainly: apparent Ki (Ki,app), enzyme inhibition, pKal catalytic domain Mutant 1. As for the experimental part: (§1) Apparent Inhibition constants (K_{i,app} values) were measured by pre-incubating enzyme and inhibitor solutions prior to initiating the reactions with substrate. Enzyme and inhibitor were pre-incubated for 2 hours at 30° C. in a 96-well plate by adding 10 μL of a 10× enzyme solution and 10 μL of 10× inhibitor solutions to 70 μL of reaction buffer. Reactions were initiated by the addition of 10 μL of a 10× concentrated stock of substrate, and were monitored at 30° C. in a fluorescence plate reader with the excitation and emission wavelengths set at 360 nm/460 nm, respectively. Kinetic data were acquired by the increase in fluorescence, and initial rates for each condition were plotted against the total inhibitor concentration. The data was fit to the following equation for tight binding inhibitors: […]
As for B1, the Ki amounted to 14 nM.

As to B2, the Ki stood at 4.7 nM.

For the molecule B3, the Ki stood at 0.14 nM.

For the molecule B4, the Ki turned out to be 0.26 nM.

Turning to B5, the Ki came to 0.4 nM.

As to B6, the Ki worked out at 0.23 nM.

Another assay concerns the target T2, human plasma kallikrein (human, UniProt P03952 20-390; P03952 391-638).
T2 construct: two disulfide-linked chains; also called pKal; human pKal
The assay is described as follows: Ki,app, inhibition of human pKal enzyme activity.
B7: the Ki was determined as 0.1 nM.

A further assay addresses T3, pKal catalytic domain Mutant 2 (human, UniProt P03952 391-638, limits assumed).
T3 construct: domain: catalytic domain; Expressed in Pichia pastoris, purified by IMAC; not shown: His tag fusion
The assay is described as follows: apparent Ki (Ki,app), enzyme inhibition, pKal catalytic domain Mutant 2. As for the experimental part: as §1
B1: the Ki was 20 nM.

With B2, the Ki was determined as 47 nM.

Take B3: the Ki is 5.9 nM.

As for B4, the Ki worked out at 2.5 nM.

Take B5: the Ki was 2.2 nM.

On to B6, for which the Ki came to 3.7 nM.

Another assay concerns the target T2, human plasma kallikrein. Put plainly: cell-based or functional assay.
Regarding B7, the “% inhibition at 10 nM” value is 95.7%.

Another assay addresses T4, human plasma kallikrein (human, UniProt P03952 20-390; P03952 391-638).
T4 construct: two disulfide linked chains; also called pKal; human pKal
Put plainly: Ki,app as an IgG, steady state enzyme kinetics, inhibition of human pKal.
B8 registered a Ki of 0.2 nM.

B9 gave a Ki of 0.9 nM.

The molecule B10 displayed a Ki of 0.7 nM.

With B11, the Ki is 3.6 nM.

In turn, B12 registered a Ki of 1.3 nM.

B13 had a Ki of 1.3 nM.

Turning to B14, the Ki is 2.1 nM.

The molecule B15 returned a Ki of 8.6 nM.

In a further assay the target is T5, wild type pKal catalytic domain (human, UniProt P03952 391-638, limits assumed).
T5 construct: domain: catalytic domain; also called WT cat; Domain; not shown: His tag fusion
Put plainly: apparent Ki (Ki,app), enzyme inhibition, wild type pKal catalytic domain. The protocol:
as §1
As to B1, the Ki came out at 0.22 nM.

For B2, the Ki turned out to be 0.13 nM.

Turning to B3, the Ki was determined as 0.09 nM.

As to B4, the Ki turned out to be 0.18 nM.

With B5, the Ki is 0.3 nM.

As for B6, the Ki worked out at 0.16 nM.

A further assay deals with T6, wild type pKal catalytic domain (human, UniProt P03952 391-638, limits assumed).
T6 construct: domain: catalytic domain; The expression in Pichia pastoris with a His tag and IMAC purification is told of the mutants; also called WT cat; Domain; not shown: His tag fusion
The assay is described as follows: Ki,app: enzyme inhibition, fluorescent substrate, 2 h pre-incubation at 30 C, tight-binding fit. The protocol: as §1
Take B16: the Ki stood at 0.22 nM.

Regarding B17, the Ki was 0.09 nM.

The molecule B18 showed a Ki of 0.18 nM.

On to B19, for which the Ki was determined as 0.16 nM.

In the next assay the target is T7, pKal catalytic domain Mutant 2 (human, UniProt P03952 391-638, limits assumed).
T7 construct: domain: catalytic domain; Expressed in Pichia pastoris, purified by IMAC; not shown: His tag fusion
The description is as above. The protocol: as §1
Regarding B16, the Ki came out at 20 nM.

Take B20: the Ki turned out to be 47 nM.

With B17, the Ki is 5.9 nM.

B18 had a Ki of 2.5 nM.

Consider B19, for which the Ki was determined as 3.7 nM.

In the next assay the target is T8, human plasma kallikrein (full length, active) (human, UniProt P03952 20-390; P03952 391-638).
T8 construct: two disulfide linked polypeptides; also called Full length pKal; pKal
T8 sequence (P03952 20-390, chain 1 of 2): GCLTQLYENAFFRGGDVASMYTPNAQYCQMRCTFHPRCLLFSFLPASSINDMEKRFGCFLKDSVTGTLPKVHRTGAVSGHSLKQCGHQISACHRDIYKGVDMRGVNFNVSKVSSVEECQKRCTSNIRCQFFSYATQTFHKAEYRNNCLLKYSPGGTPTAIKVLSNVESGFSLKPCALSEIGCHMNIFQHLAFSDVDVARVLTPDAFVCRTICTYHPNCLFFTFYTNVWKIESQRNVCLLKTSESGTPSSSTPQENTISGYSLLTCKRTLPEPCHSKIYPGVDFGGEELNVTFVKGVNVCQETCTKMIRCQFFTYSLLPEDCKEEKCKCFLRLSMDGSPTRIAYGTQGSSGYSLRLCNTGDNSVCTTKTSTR
T8 sequence (P03952 391-638, chain 2 of 2): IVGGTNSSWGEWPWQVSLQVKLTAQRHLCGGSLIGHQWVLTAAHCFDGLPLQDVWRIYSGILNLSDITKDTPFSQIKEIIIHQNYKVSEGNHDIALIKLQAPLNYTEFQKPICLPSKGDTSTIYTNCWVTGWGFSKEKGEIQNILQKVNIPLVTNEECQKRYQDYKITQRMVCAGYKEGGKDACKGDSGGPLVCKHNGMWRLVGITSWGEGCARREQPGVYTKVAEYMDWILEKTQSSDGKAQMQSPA
Described as above. The protocol:
as §1
The molecule B16 had a Ki of 0.2 nM.

As to B21, the Ki was 0.34 nM.

The molecule B20 showed a Ki of 0.33 nM.

On to B22, for which the Ki was 0.25 nM.

Turning to B23, the Ki was determined as 0.35 nM.

B17 displayed a Ki of 0.089 nM.

B18 returned a Ki of 0.18 nM.

For B19, the Ki amounted to 0.16 nM.

A further assay has as its target T9, pKal catalytic domain Mutant 1 (human, UniProt P03952 391-638, limits assumed).
T9 construct: domain: catalytic domain; Expressed in Pichia pastoris, purified by IMAC; not shown: His tag fusion
Described as above. The protocol: as §1
In the case of B16, the Ki stood at 14 nM.

B20 displayed a Ki of 4.7 nM.

In the case of B17, the Ki was 0.14 nM.

As to B18, the Ki is 0.26 nM.

B19 gave a Ki of 0.23 nM.
